Assays:
[1] = biological target: T1, human VEGF (ACRO, His tag) (human, UniProt P15692-4 27-191, limits assumed); experiment: ELISA, human VEGF-His coated at 50 ng/ml, anti-human IgG Fc detection, OD450
T1 construct: Bought protein; not shown: His tag

[2] = biological target: VEGF (species and construct not stated); experiment: cell-based or functional assay
[3] = biological target: T2, human PD-1 (ACRO, His tag) (human, UniProt Q15116 25-167); experiment: bridging ELISA: human PD-1-His coated at 1 ug/mL, antibody, then biotinylated human VEGF at 50 ng/ml and streptavidin-HRP, OD450
T2 construct: Bought protein; not shown: His tag
Description: The order of the binding to VEGF and PD-1 was changed for dual ELISA detection. A 96-well ELISA plate was coated with 1 μg/mL human PD-1 (ACRO, His tag) overnight, washed and blocked for 1 hour. […] TMB solution was added for color development, and the OD450 nm absorbance value was read on a microplate reader.

[4] = biological target: T3, monkey PD-1 (ACRO, His tag) (monkey, UniProt B0LAJ3 25-170); experiment: ELISA, monkey PD-1-His coated at 1 ug/mL, anti-human IgG Fc detection, OD450
T3 construct: Bought protein
Description: The binding of candidate molecules and competitor to antigens of different species was detected by ELISA. […] The binding of antibodies to monkey PD-1 was detected by ELISA. An ELISA plate was coated with 1 μg/mL monkey PD-1 (ACRO, His tag) overnight and blocked. Subsequently, the plate was added with gradient dilutions of the sample to be tested and the control antibody, incubated and washed. Then, the plate was added with HRP-labeled anti-human IgG Fc secondary antibody, incubated and washed. After TMB solution was added for color development, the OD450 absorbance value was read on a microplate reader (see Table 15).

[5] = biological target: T2, human PD-1 (ACRO, His tag); experiment: ELISA, human PD-1-His coated at 1 ug/mL, anti-human IgG Fc detection, OD450
Description: The binding of the antibody to human PD-1 was detected by ELISA. 1 μg/mL human PD-1 (ACRO, His tag) was coated on an ELISA plate overnight and blocked. Subsequently, the plate was added with gradient dilutions of the bispecific antibody and the control antibody, incubated and washed. Then, the plate was added with HRP-labeled anti-human IgG Fc secondary antibody, incubated and washed. After TMB solution was added for color development, the OD450 absorbance value was read on a microplate reader (see Table 12). […] Subsequently, the plate was added with gradient dilutions of the sample to be tested and the control antibody, incubated and washed. Then, the plated was added with HRP-labeled anti-human IgG Fc secondary antibody, incubated and washed. After TMB solution was added for color development, the OD450 absorbance value was read on a microplate reader (see Table 13). […] (The control substances were all obtained by in-house expression and purification)

T2 sequence (Q15116 25-167 limits assumed): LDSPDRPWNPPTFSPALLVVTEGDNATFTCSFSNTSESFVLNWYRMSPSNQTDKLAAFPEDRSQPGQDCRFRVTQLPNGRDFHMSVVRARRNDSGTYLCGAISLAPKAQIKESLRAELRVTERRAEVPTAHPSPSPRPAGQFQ
T1 sequence (P15692 other isoform, or with tags, fused parts or gaps limits assumed): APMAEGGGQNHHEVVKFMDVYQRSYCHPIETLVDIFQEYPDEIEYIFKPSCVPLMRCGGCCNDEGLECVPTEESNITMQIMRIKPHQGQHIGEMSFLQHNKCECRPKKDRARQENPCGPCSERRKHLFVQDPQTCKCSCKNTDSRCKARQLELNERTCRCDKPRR
VEGF (species and construct not stated), sequence (P15692 whole entry): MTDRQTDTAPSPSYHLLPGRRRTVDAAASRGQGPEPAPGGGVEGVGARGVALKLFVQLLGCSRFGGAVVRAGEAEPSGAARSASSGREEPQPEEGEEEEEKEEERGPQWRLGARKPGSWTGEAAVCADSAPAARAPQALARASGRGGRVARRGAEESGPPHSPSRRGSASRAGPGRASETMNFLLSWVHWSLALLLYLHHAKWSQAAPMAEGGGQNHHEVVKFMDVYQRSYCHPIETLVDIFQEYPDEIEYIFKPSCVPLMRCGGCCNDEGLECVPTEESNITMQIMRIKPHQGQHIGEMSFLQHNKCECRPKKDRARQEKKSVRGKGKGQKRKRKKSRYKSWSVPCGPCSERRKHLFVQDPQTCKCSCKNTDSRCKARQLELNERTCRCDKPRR
T3 sequence (B0LAJ3 entry or part of it limits assumed, form in doubt): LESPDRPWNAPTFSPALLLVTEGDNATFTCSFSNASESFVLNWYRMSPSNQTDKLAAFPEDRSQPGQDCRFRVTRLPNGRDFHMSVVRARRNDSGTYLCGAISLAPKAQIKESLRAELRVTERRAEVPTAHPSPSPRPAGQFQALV

Row | TOP OD [1] | maximum inhibition rate of HUVEC proliferation [2] | TOP OD [3] | TOP OD [4] | TOP OD [5] | Binder
1 | 3.09 OD |  |  |  |  | Strain #48 VHH (Fc fusion, Humanized variant of #6 (Q1E+Q5L+A49S+N58Y+D65G+D74S+V(82B)S+K83R+P84A+M89V+Q108L, Kabat); not shown: A printed molecular weight of 76.46 kD and detection by anti-human IgG Fc p) EVQLLESGGGLVQPGGSLRLSCAASGFTFSTSTMSWYRQAPGKERELVSFITSAGATTYYADSVKGRFTMSRDNSKNTVYLQMNSLRAEDTAVYYCRALVTLWNVYWGQGTLVTVSS
2 | 1.75 OD | ~60% | 3.65 OD | 3.38 OD | 2.58 OD | #16 bispecific antibody targeting PD-1 and VEGF (bispecific antibody, human IgG1, kappa, Valence is 2+2) heavy: QVQLVQSGVEVKKPGASVKVSCKASGYTFTNYYMYWVRQAPGQGLEWMGGINPSNGGTNFNEKFKNRVTLTTDSSTTTAYMELKSLQFDDTAVYYCARRDYRFDMGFDYWGQGTTVTVSSASTKGPSVFPLAPSSKSTSGGTAALGCLVKDYFPEPVTVSWNSGALTSGVHTFPAVLQSSGLYSLSSVVTVPSSSLGTQTYICNVNHKPSNTKVDKKVEPKSCDKTHTCPPCPAPEAEGAPSVFLFPPKPKDTLMISRTPEVTCVVVDVSHEDPEVKFNWYVDGVEVHNAKTKPREEQYNSTYRVVSVLTVLHQDWLNGKEYKCKVSNKALPSSIEKTISKAKGQPREPQVYTLPPSREEMTKNQVSLTCLVKGFYPSDIAVEWESNGQPENNYKTTPPVLDSDGSFFLYSKLTVDKSRWQQGNVFSCSVMHEALHNHYTQKSLSLSPGEVQLLESGGGLVQPGGSLRLSCAASGFTFSTSTMSWYRQAPGKERELVSFITSAGATTYYADSVKGRFTMSRDNSKNTVYLQMNSLRAEDTAVYYCRALVTLWNVYWGQGTLVTVSS light: EIVLTQSPATLSLSPGERATLSCRASKGVSTSGYSYLHWYQQKPGQAPRLLIYLASYLESGVPARFSGSGSGTDFTLTISSLEPEDFAVYYCQHSRDLPLTFGGGTKVEIKRTVAAPSVFIFPPSDEQLKSGTASVVCLLNNFYPREAKVQWKVDNALQSGNSQESVTEQDSKDSTYSLSSTLTLSKADYEKHKVYACEVTHQGLSSPVTKSFNRGEC

Source: US20250145701A1 (REMEGEN SHANGHAI, published 2025)
